{"source": "patent US20020058798A1", "about": "(YEDA RESEARCH AND DEVELOPMENT, published 2002)", "key": {"SNF1": {"molecular_target": "T1, SNF1 (UniProt P06782 1-633, limits assumed)", "T1 sequence (looked up)": "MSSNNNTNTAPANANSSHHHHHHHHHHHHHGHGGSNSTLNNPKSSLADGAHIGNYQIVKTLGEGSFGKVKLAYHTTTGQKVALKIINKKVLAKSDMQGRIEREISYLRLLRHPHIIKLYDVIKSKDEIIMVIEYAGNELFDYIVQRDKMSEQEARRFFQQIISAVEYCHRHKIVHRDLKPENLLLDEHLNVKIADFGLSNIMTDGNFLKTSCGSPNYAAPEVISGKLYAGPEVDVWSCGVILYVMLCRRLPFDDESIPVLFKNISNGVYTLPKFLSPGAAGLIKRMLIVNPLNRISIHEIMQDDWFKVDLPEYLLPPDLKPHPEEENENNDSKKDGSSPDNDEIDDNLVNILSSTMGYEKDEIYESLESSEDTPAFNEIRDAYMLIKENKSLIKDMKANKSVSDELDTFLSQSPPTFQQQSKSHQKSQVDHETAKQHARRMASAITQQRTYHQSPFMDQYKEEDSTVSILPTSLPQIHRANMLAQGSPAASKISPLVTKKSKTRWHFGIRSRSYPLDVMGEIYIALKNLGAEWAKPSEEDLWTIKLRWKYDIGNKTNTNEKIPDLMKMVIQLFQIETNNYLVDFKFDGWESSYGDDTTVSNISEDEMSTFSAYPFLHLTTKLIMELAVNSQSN", "assay": "yeast two-hybrid beta-galactosidase filter assay (SFY526); row = Gal4 DNA-binding-domain hybrid, column = activation-domain hybrid; + = strong color within 90 min; positive control"}, "Mouse Fas-IC, full": {"molecular_target": "T2, Mouse Fas-IC, full (mouse, UniProt P25446 187-327)", "T2 construct": "domain: FAS-IC (intracellular domain); also called mFAS-IC", "T2 sequence (looked up)": "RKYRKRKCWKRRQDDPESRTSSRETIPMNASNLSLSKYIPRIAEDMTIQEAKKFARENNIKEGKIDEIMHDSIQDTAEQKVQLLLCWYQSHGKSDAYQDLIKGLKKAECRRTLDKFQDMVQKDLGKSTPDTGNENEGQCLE", "assay": "yeast two-hybrid beta-galactosidase filter assay (SFY526); row = Gal4 DNA-binding-domain hybrid, column = activation-domain hybrid; ++ = strong color within 30 min"}, "Mouse Fas-IC 197-306": {"molecular_target": "T3, Mouse Fas-IC 197-306 (mouse, UniProt P25446 218-327)", "T3 construct": "range 197-306", "T3 sequence (looked up)": "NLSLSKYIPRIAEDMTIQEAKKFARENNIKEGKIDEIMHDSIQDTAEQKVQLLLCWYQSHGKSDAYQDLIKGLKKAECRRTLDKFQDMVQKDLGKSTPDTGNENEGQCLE", "assay": "yeast two-hybrid beta-galactosidase filter assay (SFY526); row = Gal4 DNA-binding-domain hybrid, column = activation-domain hybrid; ++ = strong color within 30 min"}, "[1]": {"molecular_target": "the molecule itself", "assay": "yeast two-hybrid beta-galactosidase filter assay (SFY526); row = Gal4 DNA-binding-domain hybrid, column = activation-domain hybrid; ++ = strong color within 30 min"}, "[2]": {"molecular_target": "T4, GST-mFAS-IC I225A (GST fusion with FAS-IC containing an Ile to Ala replacement at position 225) (mouse, UniProt P25446 187-327)", "T4 construct": "also called GST-FAS-IC with a replacement at the lpr^cg mutation site; not shown: Glutathione S-transferase (GST)", "T4 sequence (looked up)": "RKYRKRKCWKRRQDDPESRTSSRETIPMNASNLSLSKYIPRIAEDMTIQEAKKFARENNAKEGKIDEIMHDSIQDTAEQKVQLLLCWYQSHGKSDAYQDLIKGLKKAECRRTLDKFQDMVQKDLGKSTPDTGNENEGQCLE", "assay": "GST pull-down: 35S-labeled FLAG-HF1 from HeLa extracts on GST fusion bound to glutathione beads, SDS-PAGE and autoradiography", "description": "The [³⁵S] labeled proteins of the HeLa cells including the labeled FLAG-MORT1 fusion protein having been first extracted were subjected to interaction with the various GST and GST-FAS-IC proteins (bound to glutathione beads) and then to SDS-PAGE. As controls in all of the interaction experiments, extracts of HeLa cells transfected with luciferase were subjected to interactions with the GST and GST-FAS-IC fusion proteins and SDS-PAGE. FIGS. 1A and B are also described in Example 1.\nExpression of HF1 (MORT-1) molecules fused at their N terminus with the FLAG octapeptide (FLAG-HF1) yielded in HeLa cells proteins of four distinct sizes—about 27, 28, 32, and 34 kD. […] Thus the in vitro interaction was evaluated by assessing, by autoradiography following SDS-PAGE, the binding of [³⁵S] metabolically labeled HF1, produced in transfected HeLa cells as a fusion with the FLAG octapeptide (FLAG-HF1), to GST, GST fusion with the human or mouse FAS-IC (GST-huFAS-IC, GST-mFAS-IC) or to GST fusion with FAS-IC containing an Ile to Ala replacement mutation at position 225."}}}
{"binder": "SNF4 (other, UniProt P12904 1-322, looked up) MKPTQDSQEKVSIEQQLAVESIRKFLNSKTSYDVLPVSYRLIVLDTSLLVKKSLNVLLQNSIVSAPLWDSKTSRFAGLLTTTDFINVIQYYFSNPDKFELVDKLQLDGLKDIERALGVDQLDTASIHPSRPLFEACLKMLESRSGRIPLIDQDEETHREIVVSVLTQYRILKFVALNCRETHFLKIPIGDLNIITQDNMKSCQMTTPVIDVIQMLTQGRVSSVPIIDENGYLINVYEAYDVLGLIKGGIYNDLSLSVGEALMRRSDDFEGVYTCTKNDKLSTIMDNIRKARVHRFFVVDDVGRLVGVLTLSDILKYILLGSN", "values": [{"measurement": "binding result", "setting": "SNF1", "value": "binds"}]}
{"binder": "MORT-1 (full) (other, The Gal4 part is not written as a piece; Met 49 is a possible translation start; also called HF1; HF-1) VNQAPECRFGGGILGPLGKRRDLARASEPRTEGARRAGPQPRPLADPAMDPFLVLLHSVSSSLSSSELTELKFLCLGRVVKRKLERVQSGLDLFSMLLEQNDLEPGHTELLRELLASLRRHDLLRRVDDFEAGAAAGAAPGEEDLCAAFNVICDNVGKDWRRLARQLKVSDTKIDSIEDRYPRNLTERVRESLRIWKNTEKENATVAHLVGALRSCQMNLVADLVQEVQQARDLQNRSGAMSPMSWNSDASTSEAS", "values": [{"measurement": "binding result", "setting": "Mouse Fas-IC, full", "value": "binds"}, {"measurement": "binding result", "setting": "Mouse Fas-IC 197-306", "value": "binds"}, {"measurement": "binding result", "setting": "[1]", "value": "binds"}]}
{"binder": "FLAG-MORT1 fusion protein (MORT-1 N-linked to the FLAG octapeptide) (other, metabolically labeled with [35S]methionine (and [35S]cysteine for the co-immunoprecipitations), also called FLAG-HF1; HF1-FLAG; not shown: FLAG octapeptide (Eastman Kodak)) VNQAPECRFGGGILGPLGKRRDLARASEPRTEGARRAGPQPRPLADPAMDPFLVLLHSVSSSLSSSELTELKFLCLGRVVKRKLERVQSGLDLFSMLLEQNDLEPGHTELLRELLASLRRHDLLRRVDDFEAGAAAGAAPGEEDLCAAFNVICDNVGKDWRRLARQLKVSDTKIDSIEDRYPRNLTERVRESLRIWKNTEKENATVAHLVGALRSCQMNLVADLVQEVQQARDLQNRSGAMSPMSWNSDASTSEAS", "values": [{"measurement": "binding result", "setting": "[2]", "value": "no binding"}]}
